Assays:
[1] = molecular target: His-tagged cytoplasmic fragment (CF) of the E. coli aspartate chemoreceptor, 4Q (E. coli); assay: co-sedimentation
[2] = molecular target: all active complexes of the different constructs assembled with vesicles, PEG, or Ni(II); assay: co-sedimentation

Row | Binder | percent bound [1] [%] | sedimentation relative to the optimal NiCl2 sample [1] [%] | sedimented (bound) concentration, maximum at 4 h [1] [µM] | stoichiometry N (CheW per 6 CF) [2]
1 | CheA (enzyme) MSMDISDFYQTFFDEADELLADMEQHLLVLQPEAPDAEQLNAIFRAAHSIKGGAGTFGFSVLQETTHLMENLLDEARRGEMQLNTDIINLFLETKDIMQEQLDAYKQSQEPDAASFDYICQALRQLALEAKGETPSAVTRLSVVAKSEPQDEQSRSQSPRRIILSRLKAGEVDLLEEELGHLTTLTDVVKGADSLSAILPGDIAEDDITAVLCFVIEADQITFETVEVSPKISTPPVLKLAAEQAPTGRVEREKTTRSNESTSIRVAVEKVDQLINLVGELVITQSMLAQRSSELDPVNHGDLITSMGQLQRNARDLQESVMSIRMMPMEYVFSRYPRLVRDLAGKLGKQVELTLVGSSTELDKSLIERIIDPLTHLVRNSLDHGIELPEKRLAAGKNSVGNLILSAEHQGGNICIEVTDDGAGLNRERILAKAASQGLTVSENMSDDEVAMLIFAPGFSTAEQVTDVSGRGVGMDVVKRNIQKMGGHVEIQSKQGTGTTIRILLPLTLAILDGMSVRVADEVFILPLNAVMESLQPREADLHPLAGGERVLEVRGEYLPIVELWKVFNVAGAKTEATQGIVVILQSGGRRYALLVDQLIGQHQVVVKNLESNYRKVPGISAATILGDGSVALIVDVSALQAINREQRMANTAA | < 15 | 50 | 5.8 | 
2 | CheW (natural protein) MTGMTNVTKLASEPSGQEFLVFTLGDEEYGIDILKVQEIRGYDQVTRIANTPAFIKGVTNLRGVIVPIVDLRIKFSQVDVDYNDNTVVIVLNLGQRVVGIVVDGVSDVLSLTAEQIRPAPEFAVTLSTEYLTGLGALGDRMLILVNIEKLLNSEEMALLDSAASEVA | < 15 | 50 | 13.6 | 2.1 to 3

Source: article PMC5678893
